Measurements taken from the DeepSol protein solubility set.

Test: soluble on expression in E. coli; label from the status in PepcDB or PDB records

Sequence | soluble on expression in E. coli
MYLHMAIAAPRILCPDMDSDTTKKWIFREPSRTDGDDVYALITECPPLDINSSYCNFLQATHFSKTCVLAEKDGDLAGFISGYQEPDEPNTLFIWQVAVSPRYRGKGLAFSMLTTLLERKNLLHIEFIETTITKANNASWSLFKKIDAQYGNQGQVTTFLDKESHFKGKHDTEYLYRIPLKSSQK | not soluble
MKALHFGAGNIGRGFIGKLLADAGIELTFADVNQTVLDALNARHSYQVHVVGENEQVDTVSGVNAVSSIGDEVVDLIAEVDLVTTAVGPVVLERIAPAIAKGLAQRKAQGTERPLNIIACENMVRGTTQLKGHVFNALAEEHKAWVEAHIGFVDSAVDRIVPPSASATHDPLEVTVETFSEWIVDKTQFKGALPTIPGMELTDNLMAFVERKLFTLNTGHAITAYLGKLAGHQTIRDAILDEKIRAVVQGAMEESGAVLIKRYAFDPQKHAAYIQKILGRFENPYLKDDVERVGRQPLRKLSAGDRLIKPLLGTLEYGLPHRNLVKGIAAAMHFRSEDDPQAQELAALIADKGPQAALAQISGLDAASDVVAEAVNDYNAEK | not soluble
MSLIDWTRPLADRMRPRLLTEFVGQSHLLDAGKPLREVIEAGRPHSMVFWGPPGTGKTTLARLIAEATEAEFLALSAVMAGVKEIRQASATGQANRARGRQTILFVDEVHRFNKAQQDAFLPFIEDGTVVFIGATTENPSFELNNALLSRLRTYVLRPLGEAALARIIDCALEDSERGLGTKQLALSEQARSLLIQAADGDARSALSLLEVAADLSAAEARIDIDLIRAAAAGGRARFDKRGEAFYDEISALHKAVRGSAPDAALYWLCRMLAGGCDPLYLARRLLRMASEDIGNADPRGLQVALNAWQAQERLGSPEGELAIAQAVVYLASVPKSDAVYRAYRLAAEDVRSHGSLEVPLALRNAPTRLLRELGYGRGYRYAHDEPEGYAAGAEYFPAELIGTRYYHPADRGLERQIGERLRRLRELDRATEGHHHHHH | not soluble
MSLPLSKTLVQKLQQAGMAIANNQPQIKFTPLSISDEKGKVALDLNIALVPNPKFDLMHSGLYKQFKDFSINFDVNKETAISLLSKFVPENQKQDLVYRMDELIAEGEANGIIVNTDKTVTLTLALENNDLKLNGKPIPEEQLKVVLFILVMGGFGREGHHHHHH | soluble
MRLNKRLPAALSGLLLSAALLAGCSTSGTAETTTTTVSSAAASTTTSTSSASSSSSSSSSSSSSDSSTTAETISNTAEAAQAFLSTLSTEEQDAVLYDYDAEEKSTGWSNFPVTFVQRSGVNLTDLTEEQQAAALNVLKNLLNDDAYQMIEDIMASDQYLNDESNTTEDSLGQYYIAFFGDPSSDSDWSIQFGGHHIGINTTFSDGAITFAPTHLGTQPSEWTNEDGETVAALSNMYETAFAFYDSLAEEQQAQLYQGEELDSMVCAPGSTCDYPTGTGLKGSDLTDEQKELLIDVIANWVGLADEETTETELDAIRETLDDTYINWSGATEYDTSTGDGIYFQISGPKVYIEFANQQGSAGADIDGVITAGWGHIHTIYRDPTNDYANSVTQEAASGMMGGGPGGNGGEMPSGDMPTGEMPSGAPSNLEHHHHHH | not soluble
MSLSFASSACFNEAGTMFRIEPNLIKAIALVESNLKKDSIGKNRDKKNNIKSFDYGLMQINQMHIPMLKKRGIIKDERDLLDNPCLNIKIGTEILYKHFSRCGMTWQCLGTYNAGFAMDNQKKRLQYAKKIYIVYTRLNELDNRKALAEGHHHHHH | soluble
GHMASVTRAVFGELPSGGGTVEKFQLQSDLLRVDIISWGCTITALEVKDRQGRASDVVLGFAELEGYLQKQPYFGAVIGRVANRIAKGTFKVDGKEYHLAINKEPNSLHGGVRGFDKVLWTPRVLSNGVQFSRISPDGEEGYPGELKVWVTYTLDGGELIVNYRAQASQATPVNLTNHSYFNLAGQASPNINDHEVTIEADTYLPVDETLIPTGEVAPVQGTAFDLRKPVELGKHLQDFHLNGFDHNFCLKGSKEKHFCARVHHAASGRVLEVYTTQPGVQFYTGNFLDGTLKGKNGAVYPKHSGFCLETQNWPDAVNQPRFPPVLLRPGEEYDHTTWFKFSVA | soluble
NIDLDIHARENIANITNAMIELVSQDCHWLKVWFEWSASTRDEVWPLFVSTNRTNQLLVQNMFIKAIERGEVCDQHDSEHLANLFHGICYSLFVQANRFKGEAELKELVSAYLDMLCIYNREH | not soluble
RLNLKAIAERSESLEDFFTRTLPHYCQQQIAIIDARCEFLYQQSHFFENSFLVKEGLINPERFVPMFGMYGLAEAVNLLCEKEGIAARYGKEAAANEVGYRISAQLAEFVANTPVKYGWQKRAMLHAQSGISSDIGTTPGARLPYGDEPDPITHLQTVAPHHAYYYSGISDILTLDETIKRNPQALVQLCLGAFKAGMREFTANVSGNDLVRVTGYMVRLSDLEKYRAEGSRTNTTWL | not soluble
MGSDKIHHHHHHMAERFRPLAMAGLAALALVLAGCGDTLESFGGPTMGSTYSIKYVRGASAPDVQTAKAAVEAILAEVDRQMSTYRDDSLVSRFNALPAQSCMELPLPMLELLRYGGELSEQSQGAFDMTVEPLMNLWGFGPQARVEKVPSAEQIAAVRRDVGHRHLRIDGQRLCKDAAVQLDFDSIAAGYTVDAVGERLKELGVRSYLAEITGELKAEGRKPDGTPWRIAIEAPREGQRVAQQVLALDGYGVSTSGDYRNYFEENGQRYSHTFDPRTGAPIDHHLASVTVIDPSTRNADGLSTLLMVLGPEEGYRFAEKHRLAALFVSRQGNGFDSRTTPRYEQLFGNQGERP | not soluble
MYIAHIFRVSVAHLQFFNGPTTKNWAEPYQSIETSDTQSHITWQALIGRPFIFVEKKFLLFLSKKFSLVGNFPIPSNFADQFSSVSIPSESLPFSRKSFSDHHPWLPLISMESSWE | not soluble
PFEIVFEGAKEFAQLIDTASKLIDEAAFKVTEDGISMRAMDPSRVVLIDLNLPSSIFSKYEVVEPETIGVNLDHLKKILKRGKAKDTLILKKGEENFLEITIQGTATRTFRVPLIDVEEMEVDLPELPFTAKVVVLGEVLKAAVKAASLVSDSIKFIARENEFIMKAEGETQEVEIKLTLEDEGLLDIEVQEETKSAYGVSYLSDMVKGLGKADEVTIKFGNEMPMQMEYYIRDEGRLTFLLAPRVEE | soluble
MISKDEILEIFDKYNKDEITIATLGSHTSLHILKGAKLEGFSTVCITMKGRDVPYKRFKVADKFIYVDNFSDIKNEEIQEKLRELNSIVVPHGSFIAYCGLDNVENSFLVPMFGNRRILRWESERSLEGKLLREAGLRVPKKYESPEDIDGTVIVKFPGARGGRGYFIASSTEEFYKKAEDLKKRGILTDEDIANAHIEEYVVGTNFCIHYFYSPLKDEVELLGMDKRYESNIDGLVRIPAKDQLEMNINPSYVITGNIPVVIRESLLPQVFEMGDKLVAKAKELVPPGMIGPFCLQSLCNENLELVVFEMSARVDGGTNSFMNGGPYSFLYNGEPLSMGQRIAREIKMALQLDMIDKIIS | soluble
SPAAVASALEGCREPVPGIRCRDAFSAASGIIDKMACVPELAVSEISAPRIVSSLAGDGHALFVANSMPARDMDLYAAPVAQKPLQVALNRGVSGIDGIISTAAGFSAGLGKPTTLLIGDISFLHDLNALCLLNHPWNPLIVIVLNNHGGSIFSFLPIASQTDRLDECFATPQNFSIESAARTFGIDYACPETNGDFTQLYAEALTTKKSLIIEIRSDREKNLLLHRSLKARLDPVFEKADC | not soluble
MGSDKIHHHHHHMGQRIPVTLGNIAPLAVKPFRPGKLALVCEGGGQRGIFTAGVLDEFMRAGFNPFDLMLGTSAGAQNLSAYMCNQQGYARKVITRYTTSRQFFDPMRFVRGGNLIDLDWLVEATSQQMPLAMNYAEAQFALGKELWLCACRGDDYSASYFSPTPQTWLDLIRASSAIPGFYRSGVLLDGVSYLDGGVSDAIPVQEAARRGAQTIVVIRTVPSQMFYTPQWFKRMERWLGESSLQPLVNLVHHHETTYRAIQQFIEKPPGKLRIFEIYPQRPLRSMALGSRLPALLEDYKTGRQCGRYFLATVGKLLADQPPLLRHAPRIARPAPVVVPPVPVANEAPQATIIPAPQANDPSFDHEDLA | not soluble
MAHHHHHHMVDYGEGGKNGSLDTVRQTLVCATRILMLAVSCKKVQLIYTLLPFMALIFKELLVSDDEERLRALFSDAKGQCALAGLRRSTANLSLLLDTEQDFTTLSSPWSFSYDTSEVGMKEIRSLTTFLVSGDSGLSEALEYVTTDCLRSGRLLTLYEIVRGFSLSPYGMMELKLDEVRDPHCGVSSHGEGSSVRGHFPHLPTHGELFLNLFTGIHEEFSLTRSPRCVGNELRRHRSSVVGAEVATTDFTLWTLAQSILYSTPGLPETLRHLRDHFAMWDECVLAINIILMCFTDVVHQLRRHSELVQALQHLLVDERNCGYKSFIRYCLENVS | not soluble
AFTMEIPPTHYAASRAASVAENCINYQQGTPHKLFLVQTVQQASKEDIPGRGHKYHLKFSVEEIIQKQVTVNCTAEVLYPQMGQGSAPEVNFTFEGEIGKNPDEEDNTFYQSLMSLKRPLEAQDIPDNFGNVSPQMKPVQHLAWVACGYVMWQNSTEDTWYKMLKIQTVKQVQRNDDFIELDYTILLHDIASQEIIPWQMQVLWHPQYGTKVKHNSRLPKEGQAE | soluble
GPGSMKKFMLNTKASLGLVGEKTVDEDYNKRSASLKALNEALNEYSTAMDKAKHAMREVMHSLGKASKAFEKLNSGSCIPEPLKDFSEDFKKAIEHLQQYALQEFMNTMETTVIKTGHAIRADYEECVRVDQQRQKTVNEYDVYRSAVDKKETEYAKKGKDLKESKTYEEDTKTRDELKADYEASDKLFKSSHDALESNVVSKGRLCMREFFCCTSEFLSALSTEMKRLHEKSLLLGA | not soluble
YLDVRQVMYTLVAVFIGSRVIDFVQEGAYAARGALIISKDNDAIASHVMLSMNRGVTVLEGRGGFSKNEQDVLYIVVAKNEIVQLKNIVQAIDPHAFVSVSVVHDVMGEGFTLDENKNPIY | not soluble
MTTPLISIRNLCVDYITDAGDVRACNNVSFDLAPGEVFGLAGESGCGKSTVAFSLMRLHKPPAFITGGEVIFNGEDILKYSDERMQAFRWKEMSMVFQSAMNALNPVLTMEEQFCDVITRHTNMTREQAKRRAEGLLEIVDIHPSRLNDYPHQFSGGMRQRLVIAIALALNPKMIIMDEPTTALDVVVQREILQKIYALKEEFGFSILFITHDLSLMVEFSDRIGIMYSGELIEVAPSKQILETPYHPYTKGLGSSFPPLTGPKTKLTGIPGNPLNLLDIPQGCRFQARCDRVHEACTKVPTVLRQIEHGRFSNCHLYTQSNATIKR | not soluble
MSLNQTILNRVKTRVMHQLVSSLIYENIVVYKASYQDGVGHFTIEGHDSEYRFTAEKTHSFDRIRITSPIERVVGDEADTTTDYTQLLREVVFTFPKNDEKLEQFIVELLQTELKDTQSMQYRESNPPATPETFNDYEFYAMEGHQYHPSYKSRLGFTLSDNLKFGPDFVPNVKLQWLAIDKDKVETTVSRNVVVNEMLRQQVGDKTYEHFVQQIEASGKHVNDVEMIPVHPWQFEHVIQVDLAEERLNGTVLWLGESDELYHPQQSIRTMSPIDTTKYYLKVPISITNTSTKRVLAPHTIENAAQITDWLKQIQQQDMYLKDELKTVFLGEVLGQSYLNTQLSPYKQTQVYGALGVIWRENIYHMLIDEEDAIPFNALYASDKDGVPFIENWIKQYGSEAWTKQFLAVAIRPMIHMLYYHGIAFESHAQNMMLIHENGWPTRIALKDFHDGVRFKREHLSEAASHLTLKPMPEAHKKVNSNSFIETDDERLVRDFLHDAFFFINIAEIILFIEKQYGIDEELQWQWVKGIIEAYQEAFPELNNYQHFDLFEPTIQVEKLTTRRLLSDSELRIHHVTNPLGVGGINDATTISETEGHHHHHH | soluble
SPTPVELHKVTLYKDSGMEDFGFSVADGLLEKGVYVKNIRPAGPGDLGGLKPYDRLLQVNHVRTRDFDCCLVVPLIAESGNKLDLVISRNP | soluble
